Residue numbers refer to the chain shown, from its start. Names and notes keep the numbering of the source.

These results are taken from article doi:10.1101/2024.04.08.588565v2.

Substrate in the series: O=C1CCCCC1
In words: purified protein. Type of series: biochemical, Streptosporangium roseum. The conditions noted are these: 30 mM cyclopropylamine, 0.5 mM NADPH.

B1: SrIRED (Streptosporangium roseum DSM 43021; P203A/T241G) (protein)
chain: MRDTDVTVLGLGLMGQALAGAFLKDGHATTVWNRSEGKAGQLAEQGAVLASSARDAAEASPLVVVCVSDHAAVRAVLDPLGDVLAGRVLVNLTSGTSEQARATAEWAAERGITYLDGAIMAIPQVVGTADAFLLYSGPEAAYEAHEPTLRSLGAGTTYLGADHGLSSLYDVALLGIMWGTLNSFLHGAALLGTAKVEATTFAAFANRWIEAVTGFVSAYAGQVDQGAYPALDATIDTHVAGVDHLIHESEAAGVNTELPRLVRTLADRALAGGQGGLGYAAMIEQFRSPSA
In the case of B1, where the note is “Tris pH 8, 25 °C”, the Km was 5100 ± 400 µM and the kcat was found to be 49.3 ± 1.5 s⁻¹.

B2: SrIRED (Streptosporangium roseum DSM 43021) (protein)
chain: B1 chain with A203P, G241T
For the protein B2, for the setting “100 mM Tris pH 8.0, 25 °C”, the Michaelis-Menten constant (Km) is 3520 ± 440 µM and the turnover number (kcat) was 2.11 ± 0.08 s⁻¹.

B3: SrIRED (Streptosporangium roseum DSM 43021; T241A) (protein)
chain: B1 chain with A203P, G241A
With B3, where the note is “Tris pH 8, 25 °C”, the Km was 2310 ± 330 µM and the turnover number (kcat) was found to be 5.77 ± 0.24 s⁻¹.

B4: SrIRED (Streptosporangium roseum DSM 43021; E146V) (protein)
chain: B1 chain with E146V, A203P, G241T
With B4, for the setting “Tris pH 8, 25 °C”, the Michaelis constant (Km) worked out at 2400 ± 300 µM and the kcat was found to be 1.7 ± 0.1 s⁻¹.

B5: SrIRED (Streptosporangium roseum DSM 43021; T241S) (protein)
chain: B1 chain with A203P, G241S
Consider B5, for which, where the note is “Tris pH 8, 25 °C”, the Km amounted to 2310 ± 510 µM and the kcat was 6.02 ± 0.39 s⁻¹.

As usually defined, the Km is the concentration of substrate that gives half-maximal velocity. As a reminder, the kcat is the number of substrate molecules converted per active site and unit of time at saturation.
